Experiments:
Assay in all cases: Kinase Profiling Assay
Type in all cases: biochemical
Conditions in all cases: 100 μM
[1] = target: WNK2(h) (Homo sapiens, UniProt Q9Y3S1)
[2] = target: T1, EphB4(h) (Homo sapiens, UniProt P54760)
T1 sequence (P54760 16-987): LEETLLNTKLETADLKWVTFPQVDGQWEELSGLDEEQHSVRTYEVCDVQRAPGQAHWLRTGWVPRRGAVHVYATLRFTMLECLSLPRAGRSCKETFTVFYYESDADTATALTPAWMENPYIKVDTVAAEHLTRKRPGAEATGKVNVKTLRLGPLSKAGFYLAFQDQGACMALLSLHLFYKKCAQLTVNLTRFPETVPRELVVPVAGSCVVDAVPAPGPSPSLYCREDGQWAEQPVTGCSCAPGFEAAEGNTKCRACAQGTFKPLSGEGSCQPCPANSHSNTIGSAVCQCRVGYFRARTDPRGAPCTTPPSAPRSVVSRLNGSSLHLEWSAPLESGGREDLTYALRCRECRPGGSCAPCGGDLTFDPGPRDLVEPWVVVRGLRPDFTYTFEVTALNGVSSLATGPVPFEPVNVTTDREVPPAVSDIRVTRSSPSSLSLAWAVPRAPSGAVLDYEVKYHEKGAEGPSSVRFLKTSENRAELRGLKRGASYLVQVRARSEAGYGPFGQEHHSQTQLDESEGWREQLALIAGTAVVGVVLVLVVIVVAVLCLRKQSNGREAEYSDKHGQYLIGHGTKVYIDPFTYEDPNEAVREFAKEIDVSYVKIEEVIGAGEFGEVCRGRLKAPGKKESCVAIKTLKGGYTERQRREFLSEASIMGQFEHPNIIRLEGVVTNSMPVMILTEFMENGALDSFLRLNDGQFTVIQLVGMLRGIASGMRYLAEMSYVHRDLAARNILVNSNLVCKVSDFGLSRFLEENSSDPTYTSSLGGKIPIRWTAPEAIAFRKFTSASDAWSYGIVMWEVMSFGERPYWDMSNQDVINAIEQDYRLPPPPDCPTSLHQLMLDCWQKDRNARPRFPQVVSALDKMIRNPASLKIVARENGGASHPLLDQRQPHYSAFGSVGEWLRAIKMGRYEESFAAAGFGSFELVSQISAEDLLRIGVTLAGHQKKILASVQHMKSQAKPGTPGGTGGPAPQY

[3] = target: cKit(h) (Homo sapiens, UniProt P10721)
[4] = target: T2, Rse(h) (Homo sapiens, UniProt Q06418)
T2 sequence (Q06418 41-890): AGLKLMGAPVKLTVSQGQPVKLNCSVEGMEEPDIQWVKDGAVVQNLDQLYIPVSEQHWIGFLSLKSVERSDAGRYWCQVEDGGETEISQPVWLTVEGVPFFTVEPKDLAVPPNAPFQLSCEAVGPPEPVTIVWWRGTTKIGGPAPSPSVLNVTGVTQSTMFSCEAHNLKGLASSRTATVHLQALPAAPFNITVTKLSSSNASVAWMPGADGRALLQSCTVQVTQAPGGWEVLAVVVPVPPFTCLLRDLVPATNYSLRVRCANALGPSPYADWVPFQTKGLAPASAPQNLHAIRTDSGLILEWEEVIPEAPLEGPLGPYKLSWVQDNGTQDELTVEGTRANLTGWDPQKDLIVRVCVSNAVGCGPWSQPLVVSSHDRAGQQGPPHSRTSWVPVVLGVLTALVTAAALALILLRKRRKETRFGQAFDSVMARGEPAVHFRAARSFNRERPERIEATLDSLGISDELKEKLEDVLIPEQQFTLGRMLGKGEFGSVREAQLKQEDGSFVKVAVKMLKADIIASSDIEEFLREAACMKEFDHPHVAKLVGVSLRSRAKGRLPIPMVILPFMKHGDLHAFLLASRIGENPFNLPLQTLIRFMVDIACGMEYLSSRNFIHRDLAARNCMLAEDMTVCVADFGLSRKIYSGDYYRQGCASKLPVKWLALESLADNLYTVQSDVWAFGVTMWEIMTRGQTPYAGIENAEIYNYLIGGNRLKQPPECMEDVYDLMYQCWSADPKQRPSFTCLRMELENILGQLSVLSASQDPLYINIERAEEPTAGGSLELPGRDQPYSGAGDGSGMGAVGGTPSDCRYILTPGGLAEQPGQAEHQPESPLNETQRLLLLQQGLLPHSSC

[5] = target: Met(D1246N)(h) (Homo sapiens, UniProt P08581, D1228N)
[6] = target: SRPK1(h) (Homo sapiens, UniProt Q96SB4)
Chain of SRPK1(h) (Q96SB4 whole entry): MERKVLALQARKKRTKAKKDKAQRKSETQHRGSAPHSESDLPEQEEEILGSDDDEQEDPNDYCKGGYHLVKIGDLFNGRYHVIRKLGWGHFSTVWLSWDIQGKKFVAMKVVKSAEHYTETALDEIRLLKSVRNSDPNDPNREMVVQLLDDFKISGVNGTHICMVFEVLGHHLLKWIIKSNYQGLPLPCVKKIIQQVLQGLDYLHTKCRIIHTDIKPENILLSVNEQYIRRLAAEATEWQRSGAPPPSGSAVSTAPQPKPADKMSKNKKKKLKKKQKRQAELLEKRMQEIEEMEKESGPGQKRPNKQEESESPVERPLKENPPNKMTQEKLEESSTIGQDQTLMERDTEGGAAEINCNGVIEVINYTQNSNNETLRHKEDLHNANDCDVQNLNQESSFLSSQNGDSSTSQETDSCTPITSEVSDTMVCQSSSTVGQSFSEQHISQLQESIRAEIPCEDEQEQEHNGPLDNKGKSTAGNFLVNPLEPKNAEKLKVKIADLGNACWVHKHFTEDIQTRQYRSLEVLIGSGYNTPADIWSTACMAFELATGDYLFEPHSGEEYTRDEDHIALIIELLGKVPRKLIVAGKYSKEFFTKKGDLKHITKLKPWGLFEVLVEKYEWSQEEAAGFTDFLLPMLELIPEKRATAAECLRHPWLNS

[7] = target: Abl(Y253F)(h) (Homo sapiens, UniProt P00519, Y253F)
[8] = target: CaMKIδ(h) (Homo sapiens, UniProt Q8IU85)
Chain of CaMKIδ(h) (Q8IU85 whole entry): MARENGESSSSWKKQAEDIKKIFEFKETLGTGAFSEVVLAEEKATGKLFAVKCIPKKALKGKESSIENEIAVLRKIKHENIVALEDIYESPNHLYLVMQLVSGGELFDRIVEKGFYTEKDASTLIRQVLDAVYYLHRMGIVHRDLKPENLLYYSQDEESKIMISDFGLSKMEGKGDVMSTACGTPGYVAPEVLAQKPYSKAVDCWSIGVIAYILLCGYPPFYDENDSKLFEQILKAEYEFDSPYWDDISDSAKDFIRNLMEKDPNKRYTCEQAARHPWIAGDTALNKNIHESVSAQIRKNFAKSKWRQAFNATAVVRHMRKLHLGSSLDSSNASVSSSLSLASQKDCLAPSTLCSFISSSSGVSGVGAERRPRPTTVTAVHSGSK

[9] = target: T3, ZAP-70(h) (Homo sapiens, UniProt P43403)
T3 sequence (P43403 1-619): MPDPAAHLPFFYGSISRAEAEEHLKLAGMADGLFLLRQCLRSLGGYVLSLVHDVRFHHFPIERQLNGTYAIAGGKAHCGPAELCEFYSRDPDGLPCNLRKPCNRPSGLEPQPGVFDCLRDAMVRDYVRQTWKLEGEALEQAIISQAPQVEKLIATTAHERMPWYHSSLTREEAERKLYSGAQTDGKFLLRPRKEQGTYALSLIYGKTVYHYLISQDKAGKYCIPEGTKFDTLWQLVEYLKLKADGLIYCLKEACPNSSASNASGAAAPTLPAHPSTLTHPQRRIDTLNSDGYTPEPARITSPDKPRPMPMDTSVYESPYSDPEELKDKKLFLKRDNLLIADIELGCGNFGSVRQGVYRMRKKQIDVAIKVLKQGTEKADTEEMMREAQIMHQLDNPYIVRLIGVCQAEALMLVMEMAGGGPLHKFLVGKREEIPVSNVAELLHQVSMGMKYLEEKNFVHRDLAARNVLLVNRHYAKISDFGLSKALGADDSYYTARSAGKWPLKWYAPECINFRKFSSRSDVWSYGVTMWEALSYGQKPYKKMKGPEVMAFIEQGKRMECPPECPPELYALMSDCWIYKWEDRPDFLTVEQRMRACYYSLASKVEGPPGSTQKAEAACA

[10] = target: PRK2(h) (Homo sapiens, UniProt Q16513)
Chain of PRK2(h) (Q16513 whole entry): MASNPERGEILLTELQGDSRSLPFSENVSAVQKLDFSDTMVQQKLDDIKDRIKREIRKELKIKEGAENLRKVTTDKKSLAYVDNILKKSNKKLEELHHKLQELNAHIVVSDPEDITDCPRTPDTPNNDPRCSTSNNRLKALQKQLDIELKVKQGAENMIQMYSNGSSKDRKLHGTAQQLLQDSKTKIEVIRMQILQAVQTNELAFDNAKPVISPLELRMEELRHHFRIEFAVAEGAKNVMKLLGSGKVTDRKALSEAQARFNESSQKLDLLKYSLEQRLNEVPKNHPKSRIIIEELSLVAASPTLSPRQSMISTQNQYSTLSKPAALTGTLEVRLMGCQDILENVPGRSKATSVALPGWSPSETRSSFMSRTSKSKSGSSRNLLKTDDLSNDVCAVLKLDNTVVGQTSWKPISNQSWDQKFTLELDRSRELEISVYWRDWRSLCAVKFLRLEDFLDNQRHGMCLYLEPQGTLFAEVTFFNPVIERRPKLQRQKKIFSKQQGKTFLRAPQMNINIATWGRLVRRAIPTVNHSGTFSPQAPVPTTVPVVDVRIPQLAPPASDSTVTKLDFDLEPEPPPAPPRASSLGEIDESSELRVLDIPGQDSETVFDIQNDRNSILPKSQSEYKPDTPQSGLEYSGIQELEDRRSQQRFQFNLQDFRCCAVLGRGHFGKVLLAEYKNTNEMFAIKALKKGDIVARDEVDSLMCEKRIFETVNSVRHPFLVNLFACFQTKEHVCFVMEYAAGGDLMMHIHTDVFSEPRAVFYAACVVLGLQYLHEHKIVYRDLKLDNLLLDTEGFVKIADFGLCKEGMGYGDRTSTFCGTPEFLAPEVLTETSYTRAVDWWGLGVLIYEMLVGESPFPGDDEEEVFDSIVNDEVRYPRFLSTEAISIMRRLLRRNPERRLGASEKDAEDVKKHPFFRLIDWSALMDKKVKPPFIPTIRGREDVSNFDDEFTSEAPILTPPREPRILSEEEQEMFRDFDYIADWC

Chain of WNK2(h) (Q9Y3S1 whole entry): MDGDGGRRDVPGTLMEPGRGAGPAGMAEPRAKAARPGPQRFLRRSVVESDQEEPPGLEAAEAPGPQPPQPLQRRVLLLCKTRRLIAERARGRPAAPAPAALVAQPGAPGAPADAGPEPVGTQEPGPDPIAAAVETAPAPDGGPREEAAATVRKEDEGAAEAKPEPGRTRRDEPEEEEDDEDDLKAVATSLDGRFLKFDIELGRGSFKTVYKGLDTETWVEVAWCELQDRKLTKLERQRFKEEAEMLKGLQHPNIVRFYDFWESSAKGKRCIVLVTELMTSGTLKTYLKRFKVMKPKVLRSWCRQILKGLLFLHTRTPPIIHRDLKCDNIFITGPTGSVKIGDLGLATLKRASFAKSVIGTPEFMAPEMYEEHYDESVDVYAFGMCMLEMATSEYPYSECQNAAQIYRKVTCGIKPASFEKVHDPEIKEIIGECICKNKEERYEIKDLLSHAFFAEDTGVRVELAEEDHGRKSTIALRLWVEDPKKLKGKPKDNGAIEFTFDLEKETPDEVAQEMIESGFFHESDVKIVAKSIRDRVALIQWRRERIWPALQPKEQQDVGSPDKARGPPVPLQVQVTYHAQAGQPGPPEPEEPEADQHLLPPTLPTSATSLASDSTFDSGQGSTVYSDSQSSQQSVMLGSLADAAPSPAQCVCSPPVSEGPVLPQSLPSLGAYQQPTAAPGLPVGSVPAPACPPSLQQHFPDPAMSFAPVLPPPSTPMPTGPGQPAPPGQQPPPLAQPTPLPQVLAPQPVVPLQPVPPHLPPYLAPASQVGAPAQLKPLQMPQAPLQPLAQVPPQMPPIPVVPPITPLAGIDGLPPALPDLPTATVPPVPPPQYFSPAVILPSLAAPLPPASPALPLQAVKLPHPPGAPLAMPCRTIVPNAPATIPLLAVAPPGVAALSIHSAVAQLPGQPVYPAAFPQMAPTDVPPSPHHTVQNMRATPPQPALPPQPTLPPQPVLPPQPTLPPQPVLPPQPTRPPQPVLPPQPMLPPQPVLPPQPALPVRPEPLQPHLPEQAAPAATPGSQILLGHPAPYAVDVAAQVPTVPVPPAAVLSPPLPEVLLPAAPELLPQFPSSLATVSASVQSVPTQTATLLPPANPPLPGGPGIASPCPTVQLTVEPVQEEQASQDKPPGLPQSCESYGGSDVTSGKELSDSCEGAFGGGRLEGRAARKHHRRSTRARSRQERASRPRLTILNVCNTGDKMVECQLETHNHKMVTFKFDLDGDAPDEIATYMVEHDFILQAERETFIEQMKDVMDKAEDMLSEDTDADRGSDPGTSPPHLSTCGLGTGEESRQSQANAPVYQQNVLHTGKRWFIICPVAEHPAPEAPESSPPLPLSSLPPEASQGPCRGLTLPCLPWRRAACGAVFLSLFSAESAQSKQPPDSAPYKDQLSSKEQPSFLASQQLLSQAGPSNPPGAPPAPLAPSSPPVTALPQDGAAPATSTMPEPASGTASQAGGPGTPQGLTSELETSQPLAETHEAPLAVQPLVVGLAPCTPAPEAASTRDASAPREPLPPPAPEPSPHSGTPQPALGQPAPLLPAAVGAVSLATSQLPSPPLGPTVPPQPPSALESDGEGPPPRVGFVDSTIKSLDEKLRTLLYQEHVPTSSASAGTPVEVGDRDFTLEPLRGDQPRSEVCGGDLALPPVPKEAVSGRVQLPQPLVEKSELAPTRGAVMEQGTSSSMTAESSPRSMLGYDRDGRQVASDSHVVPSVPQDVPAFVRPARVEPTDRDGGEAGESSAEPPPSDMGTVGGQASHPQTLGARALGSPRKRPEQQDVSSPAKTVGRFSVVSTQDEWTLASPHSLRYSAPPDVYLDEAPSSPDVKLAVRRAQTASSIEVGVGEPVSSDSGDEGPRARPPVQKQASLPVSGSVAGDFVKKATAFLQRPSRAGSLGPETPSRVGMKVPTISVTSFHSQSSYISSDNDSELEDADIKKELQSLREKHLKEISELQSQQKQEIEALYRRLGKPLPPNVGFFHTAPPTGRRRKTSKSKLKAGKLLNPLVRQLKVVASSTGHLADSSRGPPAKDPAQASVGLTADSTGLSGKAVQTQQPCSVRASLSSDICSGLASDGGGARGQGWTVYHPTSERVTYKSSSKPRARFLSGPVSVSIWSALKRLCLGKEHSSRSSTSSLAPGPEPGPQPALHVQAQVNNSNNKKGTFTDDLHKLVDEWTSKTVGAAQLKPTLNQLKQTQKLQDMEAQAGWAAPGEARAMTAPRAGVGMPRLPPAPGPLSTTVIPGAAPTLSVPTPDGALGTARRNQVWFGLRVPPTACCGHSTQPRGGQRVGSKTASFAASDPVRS

Row | Sequence | % activity [1] | % activity [2] | % activity [3] | % activity [4] | % activity [5] | % activity [6] | % activity [7] | % activity [8] | % activity [9] | % activity [10]
1 | FAKLAARLYRKALARQLGVAA [MMI-0300] | 64% | 44% | 53% | 88% | 82% | 90% | 86% | 10% | 75% | 33%
2 | KAFAKLAARLYRKALARQLGVAA [MMI-0400] | 54% | 28% | 43% | 89% | 31% | 96% | 78% | 17% | 33% | 27%
3 | HRRIKAWLKKIKALARQLGVAA [MMI-0500] | 8% | 38% | 45% | 63% | 90% | 80% | 29% | 0% | 1% | 7%
4 | YARAAARQARAKALNRQLGVA [MMI-0200] | 94% | 131% | 110% | 88% | 149% | 93% | – | 47% | 58% | 74%
